# Reference: PMC6821326 (Nucleic Acids Research, 2019)
# T1: wild-type YoeB toxin, YoeB(His)6 (Escherichia coli, UniProt P69348)
# T1 sequence: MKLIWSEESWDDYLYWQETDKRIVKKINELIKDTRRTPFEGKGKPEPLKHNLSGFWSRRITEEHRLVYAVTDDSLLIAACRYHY
# Target: T1, wild-type YoeB toxin, YoeB(His)6
# Test: pull-down
binder,measurement,value
YefM antitoxin (natural protein) MRTISYSEARQNLSATMMKAVEDHAPILITRQNGEACVLMSLEEYNSLEETAYLLRSPANARRLMDSIDSLKSGKGTEKDIIE,binding result,binds
